1 molecule from patent publication US20210238296A1 (Genmab, published 2021) can be followed below.

The target in assay [1] is T1, FcRnECDHis-B2M-BIO (recombinant biotinylated extracellular domain of human FcRn as dimer with … (human, UniProt P55899 24-297; P61769 21-119, biotinylated).
T1 construct: also called FcRnhsECDHis-B2M-BIO
The experiment in a line: FcRn ELISA at pH 6.0. On the technique in general: ELISA stands for enzyme-linked immunosorbent assay.

The target in assay [2] is T2, CD20 (human, UniProt P11836 1-297).
T2 construct: whole, on cells; cell surface target of IgG1-11B8; also called human CD20
T2 sequence (looked up): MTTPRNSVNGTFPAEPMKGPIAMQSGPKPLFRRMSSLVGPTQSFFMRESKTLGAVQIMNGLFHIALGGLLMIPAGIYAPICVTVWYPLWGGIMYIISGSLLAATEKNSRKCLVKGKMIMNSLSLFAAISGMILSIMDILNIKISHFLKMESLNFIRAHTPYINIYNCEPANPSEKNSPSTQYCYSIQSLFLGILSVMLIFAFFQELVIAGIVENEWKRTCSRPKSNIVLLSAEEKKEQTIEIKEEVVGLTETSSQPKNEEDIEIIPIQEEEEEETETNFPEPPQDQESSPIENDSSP
The experiment in a line: flow cytometry on Wien 133 and Raji cells (FIG. 7). In general terms: A flow cytometer gives signals particle by particle.

T1 sequence (P55899 other isoform, or with tags, fused parts or gaps, chain 1 of 2): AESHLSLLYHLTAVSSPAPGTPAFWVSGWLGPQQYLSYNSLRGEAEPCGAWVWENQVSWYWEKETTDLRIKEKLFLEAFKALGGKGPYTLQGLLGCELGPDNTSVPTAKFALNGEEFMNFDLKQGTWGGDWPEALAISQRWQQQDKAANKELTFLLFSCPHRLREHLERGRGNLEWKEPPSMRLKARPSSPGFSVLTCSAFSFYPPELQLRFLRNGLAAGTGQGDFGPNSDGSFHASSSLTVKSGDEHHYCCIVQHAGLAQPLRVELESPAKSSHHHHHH
T1 sequence (P61769 21-119, chain 2 of 2): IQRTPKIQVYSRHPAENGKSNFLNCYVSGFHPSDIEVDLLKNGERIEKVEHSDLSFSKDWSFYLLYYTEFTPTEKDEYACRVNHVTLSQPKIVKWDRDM

B1: IgG1-b12 (antibody)
heavy: not shown
light: EIVLTQSPGTLSLSPGERATFSCRSSHSIRSRRVAWYQHKPGQAPRLVIHGVSNRASGISDRFSGSGSGTDFTLTITRVEPEDFALYYCQVYGASSYTFGQGTKLERKRTVAAPSVFIFPPSDEQLKSGTASVVCLLNNFYPREAKVQWKVDNALQSGNSQESVTEQDSKDSTYSLSSTLTLSKADYEKHKVYACEVTHQGLSSPVTKSFNRGEC
notes: HIV gp120-specific negative control with wild type Fc; also called human IgG1 antibody b12
With B1, the figures for the binding result in assay [1] and in assay [2] were “binds” and “no binding”, respectively.
